The results in this text go back to publication PMC12142464, “High-light-inducible proteins control associations between chlorophyll synthase and the Photosystem II biogenesis factor Ycf39” (Plant Physiology, 2025).

B2: High-light-inducible protein D (native) (natural protein, UniProt P72932 1-57, looked up)
chain: MSEELQPNQTPVQEDPKFGFNNYAEKLNGRAAMVGFLLILVIEYFTNQGVLAWLGLR
notes: High-light-inducible protein HliD (6.5 kDa), Synechocystis sp; PCC 6803; also called HliD; ScpE; source: endogenous, Synechocystis solubilised membranes

Common to all, as to settings: partners not purified
In assay [1] the target is B2. The experiment in a line: co-IP; f.ChlG isolated with anti-FLAG resin from membranes solubilised with 1% n-dodecyl-β-D-maltoside and 1% glycol-diosgenin; eluate resolved by 2D CN (A8-35 amphipol)/SDS-PAGE, CBB stain; strains f.chlG/ΔchlG (HL 2 h), f.chlG/ΔchlG/ΔhliC (HL 2 h), f.chlG/ΔchlG/ΔhliC/Δycf39 (NL).
The target of assay [2] is T1, 3xFLAG-tagged chlorophyll synthase ChlG (Synechocystis sp. PCC 6803, UniProt Q55145 1-324).
T1 construct: Chlorophyll synthase ChlG, Synechocystis sp; PCC 6803, made instead of the native enzyme; Isolated complexes carry chlorophyll and carotenoids; also called f.ChlG; FLAG-tagged ChlG
T1 sequence (looked up): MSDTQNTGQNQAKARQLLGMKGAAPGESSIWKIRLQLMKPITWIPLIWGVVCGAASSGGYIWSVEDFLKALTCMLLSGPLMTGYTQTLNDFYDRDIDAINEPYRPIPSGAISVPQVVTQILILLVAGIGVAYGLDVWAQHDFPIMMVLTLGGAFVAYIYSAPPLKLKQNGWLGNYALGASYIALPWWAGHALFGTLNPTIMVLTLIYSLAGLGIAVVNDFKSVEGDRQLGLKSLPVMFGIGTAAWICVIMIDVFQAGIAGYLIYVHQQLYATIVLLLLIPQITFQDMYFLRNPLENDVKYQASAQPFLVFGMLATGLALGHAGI
The experiment in a line: affinity purification with mass spectrometry; f.ChlG anti-FLAG pulldown from f.chlG/ΔchlG cells, HL 16 h; quantitative MS with ^15N-labeled internal standard.

Assay [3] deals with T1, 3xFLAG-tagged chlorophyll synthase ChlG. Kind of assay: affinity purification with mass spectrometry; f.ChlG anti-FLAG pulldown from f.chlG/ΔchlG cells grown under NL; quantitative MS with ^15N-labeled internal standard.
Assay [4] shares this target. The experiment in a line: affinity purification with mass spectrometry; f.ChlG anti-FLAG pulldown from f.chlG/ΔchlG/ΔhliC cells, HL 16 h; quantitative MS with ^15N-labeled internal standard.
The target is the same in assay [5]. Kind of assay: affinity purification with mass spectrometry; f.ChlG anti-FLAG pulldown from f.chlG/ΔchlG/ΔhliC cells grown under NL; quantitative MS with ^15N-labeled internal standard.
For assay [6] the target is unchanged. Kind of assay: co-IP; f.ChlG isolated with anti-FLAG resin from membranes solubilised with 1% n-dodecyl-β-D-maltoside and 1% glycol-diosgenin; eluate resolved by 2D CN (A8-35 amphipol)/SDS-PAGE, CBB stain; strains f.chlG/ΔchlG (HL 2 h), f.chlG/ΔchlG/ΔhliC (HL 2 h), f.chlG/ΔchlG/ΔhliC/Δycf39 (NL).

“And” between values parts separate entries of the source, which are not always exact repeats. Equal entries are not always repeated.

B1: High-light-inducible protein C (native) (natural protein, UniProt P73563 1-47, looked up)
chain: MNNENSKFGFTAFAENWNGRLAMIGFSSALILELVSGQGVLHFFGIL
notes: High-light-inducible protein HliC (5.2 kDa), Synechocystis sp; PCC 6803; also called HliC; ScpB; source: endogenous, Synechocystis solubilised membranes (high light)
Consider B1, for which the “stoichiometry N” value in assay [1] is about 1 HliC per HliD.
In the case of B2, the “stoichiometry N” value in assay [2] is 1.12 per 1 ChlG; in assay [3], 1.54 per 1 ChlG; in assay [4] it was 1.51 per 1 ChlG; in assay [5], 1.47 per 1 ChlG; in assay [6], ~1 HliD per f.ChlG (G-D2-G complex) and ~2 HliD per f.ChlG (G-D2 complex).
